Experimental findings from article PMC8531451, “1,1'-Carbonyldiimidazole-copper nanoflower enhanced collapsible laser scribed graphene engraved microgap capacitive aptasensor for the detection of milk allergen” are described below.

The series deals with T1, beta-lactoglobulin (bovine, UniProt P02754 17-178).
T1 sequence: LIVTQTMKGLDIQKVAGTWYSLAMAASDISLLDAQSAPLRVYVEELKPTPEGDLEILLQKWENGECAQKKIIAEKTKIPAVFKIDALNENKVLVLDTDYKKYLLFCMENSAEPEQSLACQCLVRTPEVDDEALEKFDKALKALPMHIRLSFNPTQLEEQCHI
Briefly: non-faradaic capacitive aptasensor; CDI-Cu nanoflower/LSG microgap; linear 1 ag/ml-100 fg/ml, LOD 1 ag/ml; Sensor: 10 mM PBS pH 7.4, target incubated 10 min; aptamer folded in 1 mM MgCl2, 10 mM PBS (90 °C 5 min); ELASA: coating at 4 °C overnight, 2% BSA block, PBS washes. As to conditions: protein: commercial; chain copies: 2; label: biotin; 3' A tail of aptamer paired with T20 oligolinker; aptamer part single-stranded.

B1: beta-lactoglobulin aptamer with 3' A tail, annealed to biotinylated T20 oligolinker (mixed)
DNA 1: ATACCAGCTTATTCAATTCGACGATCGGACCGCAGTACCCACCCACCAGCCCCAACATCATGCCCATCCGTGTGTGAGATAGTAAGTGCAATCTAAAAAAAAAAAAAAAAAAAAAAAA
DNA 2: TTTTTTTTTTTTTTTTTTTT
modifications: 5' biotin (5Biosg) on oligolinker S1
B1: the binding result is “binds”.
